What was measured:
SARS-COV-2 RBD-mFc = SARS-COV-2 RBD-mFc (SARS-CoV-2); experiment: Luminex beads
[1] = target: SARS-CoV-2 RBD extracellular domain expressed with a C-terminal mouse IgG2a (SARS-COV-2 RBD-mFc) (SARS-CoV-2)

B1: mAb10982 (antibody, V domains shown)
VH: EVQLVESGGGLVQPGGSLRLSCAASGLTVSSNYMSWVRQAPGKGLEWVSVIYSGGTTYYADSVKGRFTISRHNSKNTLSLQMNSLRAEDTAVYYCARGEGANYYGMDVWGQGTTVTVSS
VL: QSVLTQPPSVSGAPGQRVTISCTGSSSNIGTGYDVHWYQQLPGTAPKLLIYGNSNRPSGVPDRFSGSKSGTSASLAITGLQAEDEADYYCQSYDSSLSGYVVFGGGTKLTVLG
binding result (SARS-COV-2 RBD-mFc): binds

B2: mAb10986 (antibody, V domains shown)
VH: EVQLVESGGGLVQPGGSLRLSCAASEFTVSSNYMSWVRQAPGKGLEWVSVIYSGGSTFYADSVKGRFTISRDNSKNTLYLQMNSLRAEDTAVYYCARALPYGDLHFDYWGQGTLVTVSS
VL: QSVLTQPPSVSGAPGQRVTISCTGSSSNIGTGYDVHWYQQLPGTAPKLLIYGNTNRPSGVPDRFSGSKSGTSASLAITGLQAEDEADYYCQSYDSSLSDSYVFGTGTKVTVLG
Kd [1]: ≤ 0.0158 nM
t1/2 [1]: ≥ 19.2 h

B3: mAb10985 (antibody, V domains shown)
VH: EVQLVESGGGLVQPGRSLRLSCAASGFTFDDYAMHWVRQAPGKGLEWVSGISWNRGSIGYADSVKGRFTISRDNAKNSLYLQMSSLRAEDTALYYCAKDGERWDSVVVPSARNGMDVWGQGTTVTVSS
VL: QSVLTQPPSVSGAPGQRVTISCTGSSSNIGAGYDVHWYQQLPGTAPKLLIYGNSNRPSGVPDRFSGSKSGTSASLAITGLQAEDEADYYCQSYDSSLSGSYVFGTGTKVTVLG
Kd [1]: 0.0117 nM
t1/2 [1]: 15.2 h

B4: mAb10930 (antibody, V domains shown)
VH: EVQLVESGGGLVQPGRSLRLSCAASGFTFDDYAMYWVRQAPGKGLEWVSGISWNSGSIGYADSVKGRFTISRDNAKNSLYLQMNSLRAADTALYYCAKDKDWNSRGYYYYGMDVWGQGTTVTVSS
VL: not shown
binding result (SARS-COV-2 RBD-mFc): binds

B5: mAb10923 (antibody, V domains shown)
VH: QVQLVQSGAEVKKPGASVKVSCKASGYTFINYYIHWVRQAPGQGLEWMGWINPNSGGTNYAQKFQGRVTMTRDTSISTAYMELSRLRSDDTAVYYCAIITIFGVVTWFDPWGQGTLVTVSS
VL: not shown
binding result (SARS-COV-2 RBD-mFc): binds

B6: mAb10939 (antibody, V domains shown)
VH: EVQLVESGGGLVQPGGSLRLSCAASGLTVSSNYMNWVRQVPGKGLEWVSVIYSGGSKFYVDSVKGRFTISRHNSKNTLYLQMNSLRPEDTAVYYCTRDAQYYGMDVWGQGTTVTVSS
VL: DIQMTQSPSSLSASVGDRVTITCRASQSISTYLHWYQQKPGEAPKLLIYAASSLQSGVPSRFSGSGSGTDFTLTISSLQPEDFATYYCQQSYSTPPEIFGQGTKLEIKR
binding result (SARS-COV-2 RBD-mFc): binds

B7: mAb10956 (antibody, V domains shown)
VH: EVQLVESGGGLVQPGGSLRLSCAASGLTVSSNYMSWVRQAPGKGLEWVSVIYSGGSTFYADSVKGRFTISRDNSKNTLYLQMNSLRAEDTAVYYCARDLIKYGMDVWGQGTTVTVSS
VL: not shown
Kd [1]: 0.395 nM
t1/2 [1]: 1.3 h

B8: mAb10989 (antibody, V domains shown)
VH: QVQLVQSGAEVKKPGASVKVSCKASGYIFTGYYMHWVRQAPGQGLEWMGWINPNSGGANYAQKFQGRVTLTRDTSITTVYMELSRLRFDDTAVYYCARGSRYDWNQNNWFDPWGQGTLVTVSS
VL: QSALTQPASVSGSPGQSITISCTGTSSDVGTYNYVSWYQQHPGKAPKLMIFDVSNRPSGVSDRFSGSKSGNTASLTISGLQAEDEADYYCSSFTTSSTVVFGGGTKLTVLG
t1/2 [1]: 2.07 h

B9: mAb10921 (antibody, V domains shown)
VH: EVQLVESGGGLVQPGGSLRLSCAASGITVSSNYMSWVRQAPGKGLEWVSVIYSGGSTFYADSVKGRFTISRHNSKNTLYLQMNSLRAEDTAVYYCARERNFDAFDIWGQGTMVTVSS
VL: DIQMTQSPSSVSASVGDRVTITCRASQGISSWLAWYQQKPGKAPKLLIYAASSLQSGVPSRFSGSGSGTDFTLTISSLQPEDFATYYCQQANSFPLFTFGPGTKVDIKR
binding result (SARS-COV-2 RBD-mFc): binds

B10: mAb10957 (antibody, V domains shown)
VH: EVQLVESGGGLVQPGGSLRLSCAASGVTVSSNYMSWVRQAPGKGLEWVSVIYSGGSTFYADSVKGRFTISRDNSKNTLFLQMNSLRIEDTAVYYCARDLGPYGMDVWGQGTTVTVSS
VL: DIQLTQSPSFLSASVGDRVTITCRASQGISSYLAWYQQKPGKAPKLLIYAASTLQSGVPSRFSGSGSGTQFILTISSLQPEDFATYYCQQLNSYPGFTFGPGTKVDIKR
Kd [1]: ≤ 0.0279 nM
t1/2 [1]: ≥ 19.2 h

B11: mAb10964 (antibody, V domains shown)
VH: QVQLQESGPGLVKPSETLSLTCTVSGGSINNYYWIWIRQPPGKGLEWIGYIYHSGSTNYNPSLKSRVTISVDTSKNQFSLKVSSVTAADTAVYYCANMVRGVYEDDYWGQGTLVTVSS
VL: DIQMTQSPSSLSASVGDRVTITCRASQSISNYLNWYQQKPGKAPKLLIFAASSLRSGVPSRFSGSGSGTDFTLTISSLHPEDFATYYCQQNYNTPLTFGPGTKVDIKR
Kd [1]: ≤ 0.007 nM
t1/2 [1]: ≥ 19.2 h

B12: mAb10937 (antibody, V domains shown)
VH: QITLKESGPTLVKPTQTLTLTCTFSGFSLSTNVVGVGWIRQPPGKALEWLALIYWNDDKRYSPSLKSRLTITKDTSKNQVVLTMTNMDPVDTATYYCAHGPTGDYFDYWGQGTLVTVSS
VL: not shown
binding result (SARS-COV-2 RBD-mFc): binds

B13: mAb10971 (antibody, V domains shown)
VH: EVQLVESGGGLIQPGGSLRLSCAASGVTVSSNYMSWVRQAPGKGLEWVSVIYSGGSTFYSDSVKGRFSISRDNSKNTLYLQMNSLRAEDTAVYYCARDLYYYGMDVWGQGTTVTVSS
VL: DIQLTQSPSFLSASVGDRVTITCRASQGISTYLAWYQQKPGKAPKLLIYAASTLQSGVPSRFSGSGSGTEFTLTISSLQPEDFATYYCQQLDSYPGLTFGGGTKVEIKR
Kd [1]: ≤ 0.0253 nM
koff [1]: ≤ 1e-05 s⁻¹
kon [1]: 395000 M⁻¹ s⁻¹
t1/2 [1]: ≥ 19.2 h

B14: mAb10966 (antibody, V domains shown)
VH: EVQLVESGGGLVQPGGSLRLSCAASGLTVSSNYMSWVRQAPGKGLEWVSVIYSGGSTFYADSVKGRFTISRDNSKNTLYLQMNSLRPEDTAVYYCAREGRIAATGYGMDVWGQGTTVTVSS
VL: not shown
Kd [1]: ≤ 0.0249 nM
t1/2 [1]: ≥ 19.2 h

B15: mAb10969 (antibody, V domains shown)
VH: QVQLVESGGGVVQPGRSLRLSCAASGFTFSSYAMHWVRQAPGKGLEWVAVISYDGSNKYYADSVKGRFTISRDNSKNTLYLQMNSLRAEDTAVYYCARDGRTITMVRGVIDDAFDIWGQGTMVTVSS
VL: not shown
Kd [1]: 0.0496 nM
t1/2 [1]: 12.7 h

B16: mAb10932 (antibody, V domains shown)
VH: EVQLVESGGGLVQSGGSLRLSCAASGLTVSSNYMSWVRQAPGKGLEWVSVIYSGGSTFYSDSVKGRFTISRHNSKNTLYLQMNSLRAEDTAVYYCARARGDAFDIWGQGTMVTVSS
VL: not shown
binding result (SARS-COV-2 RBD-mFc): binds

B17: mAb10920 (antibody, V domains shown)
VH: QVQLVESGGGVVQPGRSLRLSCAASGFTFSYYGMHWVRQAPGKGLEWVAVIWYDGSNKFYADSVKGRFTISRDNSKNTLYLQMNSLRAEDTAVYYCAAARPGYYYGMDVWGQGTTVTVSS
VL: DIQMTQSPSSLSASVGDRVTITCRASQGISNYLAWFQQKPGKAPNSLIYAASSLQRGVPSKFSGSGSGTDFTLTISSLQPEDFATYYCQQYNSYPRTFGQGTKVEIKR
binding result (SARS-COV-2 RBD-mFc): binds

B18: mAb10936 (antibody, V domains shown)
VH: QVQLVESGGGVVQPGRSLRLSCAASGFTFRNYGMHWVRQAPGKGLEWVSVIWYDGSNRYYADSVKGRFTISRDTSKNTLYLQMNSLRAEDTAVYYCARDPPITGTTGGDAFDIWGQGTMVTVSS
VL: not shown
binding result (SARS-COV-2 RBD-mFc): binds

B19: mAb10934 (antibody, V domains shown)
VH: not shown
VL: DIQMTQSPSSLSASVGDRVTITCQASQDIWNYINWYQQKPGKAPKLLIYDASNLKTGVPSRFSGSGSGTDFTFTISSLQPEDIATYYCQQHDDLPPTFGQGTKVEIKR
binding result (SARS-COV-2 RBD-mFc): binds

B20: mAb10938 (antibody, V domains shown)
VH: EVQLVESGGGLVQPGGSLRLSCAVSGFTVSSNYMSWVRQAPGKGLEWVSLIYSGGSTFYADSVKGRFTISRHNSKNTLYLQMNSLRAEDTAVYYCAREGGYSYDYNYWGQGTLVTVSS
VL: DIQMTQSPSSLSASVGDRVTITCQASQDIRNYLNWYQQKPGKAPKLLIYDASNLETGVPSRFSGIGSGTDFTFTISSLQPEDIATYYCQQYDNLPITFGQGTRLEIKR
binding result (SARS-COV-2 RBD-mFc): binds

B21: mAb10935 (antibody, V domains shown)
VH: EVQLVESGGGLVQPGGSLRLSCAASGFTVSSNYMSWVRQAPGKGLEWVSLIYSGGSTYYADSVKGRFTISRHNSKNTLYLQMNSLRSEDTAVYYCARVPLGDYYYGMDVWGQGTTVTVSS
VL: DIQMTQSPSSLSASVGDRVTITCQASQDINKYLNWYQQKPGKAPKLLIYDASNLETGVPSRFSGSGSGTDFTFTISSLQPEDIATYYCQQSDNLPLTFGGGTKVEIKR
binding result (SARS-COV-2 RBD-mFc): binds

B22: mAb10955 (antibody, V domains shown)
VH: EVQLVESGGGLVQPGGSLRVSCAASGFTVSRNYMSWVRQAPGKGLEWVSVIYSGGSTFYADSVKGRFTISRDNSKNTLYLQMNSLRAEDTAIYYCARYIPRFDPWGQGTLVTVSS
VL: DIQMTQSPSSLSASVGDRVTITCQASQDISNYLNWFQQKPGRAPKLLIYDASNLETGVPSRFSGSGSGTDFTFTISSLQPEDIATYYCQQYDNLPITFGQGTRLEIKR
Kd [1]: 0.0592 nM
t1/2 [1]: 8.23 h

B23: mAb10954 (antibody, V domains shown)
VH: EVQLVESGGGLVQPGGSLRLSCAASGITVSSNYMSWVRQAPGKGLEWVSLIYSGGSTYYADSVKGRFTISRDNSKNTLYLQMNSLRVEDTAVYYCARDHGMAAAGYNYWGQGTLVTVSS
VL: DIQMTQSPSSLSASVGDRVTITCQASQDINKYLNWYQQKPGKAPKLLIYDASNLETGVPSRFSGSGSGTDFTFTINSLQPEDFATYFCQQYDNLPPAFGQGTKVEIKR
Kd [1]: ≤ 0.0173 nM
t1/2 [1]: ≥ 19.2 h

B24: mAb10967 (antibody, V domains shown)
VH: EVQLVESGGGLVQPGGSLRLSCAASGFTVSSNYMSWVRQAPGKGLEWVSVIYPGGSTFYADSVKGRFTISRDNSKNTLYLQMNSLRAEDTAVYYCARDQRDFAWGQGTLVTVSS
VL: DIQMTQSPSSLSASVGDRVTITCQASQDISNYLNWYQQKPGKAPKLLIYDASNLETGVPSRFSGSGSGTDFTFTISGLQPEDIATYYCQQYDNLPPTFGQGTRLEIKR
Kd [1]: ≤ 0.0251 nM
t1/2 [1]: ≥ 19.2 h
